Data as given in PMC12830992, “Insights into the self-assembly and interaction of sars-cov-2 fusion peptides with biomimetic plasma membranes” (Nature Communications, 2025).

B1: SARS-CoV-2 Spike fusion peptide FP1 (residues 816-837) (peptide)
peptide: SFIEDLLFNKVTLADAGFIKQY
notes: Spike (S) glycoprotein of SARS-CoV-2, S2 subunit fusion domain, residues 816-837
B2: SARS-CoV-2 Spike fusion peptide FP2 (residues 835-856) (peptide)
peptide: KQYGDCLGDIAARDLICAQKFN
notes: Spike (S) glycoprotein of SARS-CoV-2, S2 subunit fusion domain, residues 835-856

Target: the molecule itself
Experiment: atomic force microscopy (topography); peptide mixed at 5 mol% with plasma membrane lipid mixture, Langmuir-Blodgett monolayer compressed to 20 mN/m (liquid-expanded phase), transferred onto mica, imaged in air at room temperature, Peak Force mode

Row | Protein | binding result
1 | B1 | binds
2 | B2 | binds
